Series [1] deals with T1, FASTK∆N1-75 (Homo sapiens, UniProt Q14296 76-549, del1-75).
T1 sequence: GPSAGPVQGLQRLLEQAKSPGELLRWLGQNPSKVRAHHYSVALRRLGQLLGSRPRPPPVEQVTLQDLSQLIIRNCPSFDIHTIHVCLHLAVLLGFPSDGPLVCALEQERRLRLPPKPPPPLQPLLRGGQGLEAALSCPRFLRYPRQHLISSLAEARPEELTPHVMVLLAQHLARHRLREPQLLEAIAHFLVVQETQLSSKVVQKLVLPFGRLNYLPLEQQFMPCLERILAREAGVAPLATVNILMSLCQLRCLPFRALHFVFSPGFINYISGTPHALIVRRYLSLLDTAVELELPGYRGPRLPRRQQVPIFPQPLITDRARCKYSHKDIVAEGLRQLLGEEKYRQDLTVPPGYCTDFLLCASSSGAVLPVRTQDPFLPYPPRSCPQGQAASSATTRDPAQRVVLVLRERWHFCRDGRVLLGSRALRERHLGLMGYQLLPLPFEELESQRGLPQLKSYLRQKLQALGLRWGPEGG
Description: MST; same as unmutated oligo 10; MST: 1x PBS, 5% glycerol, 1 mM DTT, Tween-20 (0.05% in RNA stock), 20 nM RNA, 22 °C; RNA annealed in 50 mM Tris/HCl pH 7.5, 50 mM KCl (or LiCl), 50 mM NaCl; EMSA: same solutions, on ice; footprinting: 1x Structure Buffer, 37 °C. The note with it: protein: recombinant; tags: His6-SUMO cleaved; label: Cy5 body (CTP or UTP).

For series [2], the target named is T1, FASTK∆N1-75. Description: MST; MST: 1x PBS, 5% glycerol, 1 mM DTT, Tween-20 (0.05% in RNA stock), 20 nM RNA, 22 °C; RNA annealed in 50 mM Tris/HCl pH 7.5, 50 mM KCl (or LiCl), 50 mM NaCl; EMSA: same solutions, on ice; footprinting: 1x Structure Buffer, 37 °C. As to conditions: protein: recombinant, tags: His6-SUMO cleaved.
Series [3] addresses T1, FASTK∆N1-75. Description: MST; 100 mM K+, no Na+; better than AU-rich mutant; MST: 1x PBS, 5% glycerol, 1 mM DTT, Tween-20 (0.05% in RNA stock), 20 nM RNA, 22 °C; RNA annealed in 50 mM Tris/HCl pH 7.5, 50 mM KCl (or LiCl), 50 mM NaCl; EMSA: same solutions, on ice; footprinting: 1x Structure Buffer, 37 °C. The note with it: protein: recombinant; tags: His6-SUMO cleaved; label: Cy5.

Series [4] deals with T1, FASTK∆N1-75. Description: MST; K+ annealed; MST: 1x PBS, 5% glycerol, 1 mM DTT, Tween-20 (0.05% in RNA stock), 20 nM RNA, 22 °C; RNA annealed in 50 mM Tris/HCl pH 7.5, 50 mM KCl (or LiCl), 50 mM NaCl; EMSA: same solutions, on ice; footprinting: 1x Structure Buffer, 37 °C. As to conditions: protein: recombinant, tags: His6-SUMO cleaved, label: Cy5.
For series [5], the target named is T1, FASTK∆N1-75. Description: MST; same as unmutated oligo 5; MST: 1x PBS, 5% glycerol, 1 mM DTT, Tween-20 (0.05% in RNA stock), 20 nM RNA, 22 °C; RNA annealed in 50 mM Tris/HCl pH 7.5, 50 mM KCl (or LiCl), 50 mM NaCl; EMSA: same solutions, on ice; footprinting: 1x Structure Buffer, 37 °C. The note with it: protein: recombinant; tags: His6-SUMO cleaved; label: Cy5 body (CTP or UTP).

Series [6] has as its target T2, FASTK∆N1-75 R249/R251 mutant (Homo sapiens, UniProt Q14296 76-549, R249A;R251A;del1-75).
T2 sequence: T1 sequence with R174A, R176A
Description: MST; MST: 1x PBS, 5% glycerol, 1 mM DTT, Tween-20 (0.05% in RNA stock), 20 nM RNA, 22 °C; RNA annealed in 50 mM Tris/HCl pH 7.5, 50 mM KCl (or LiCl), 50 mM NaCl; EMSA: same solutions, on ice; footprinting: 1x Structure Buffer, 37 °C. The note with it: protein: recombinant; tags: His6-SUMO cleaved; label: Cy5 body (CTP or UTP); 5' 32P in footprinting; predicted G4.

Where a chain is given by its changes, count along the chain named.

B1: ND6 oligo 10 G4kill mutant (ssRNA)
RNA: GGAGGAUUGUUGUUUGGAAGGUGGAUGCGGAGGAAAUGUUGUUAGUAAUGAGAAAUCCUGCGAAUAGGCUUCCGG
Regarding B1, the binding result with FASTK∆N1-75 [1] is reported as “binds”.

B2: ND6 oligo 10 (structured_RNA)
RNA: B1 RNA with A3G, U22G, A31G
B2: the Kd with FASTK∆N1-75 [2] (label: Cy5 body (CTP or UTP), predicted G4) was 18.5 nM.

Take UUACCCUUACCCUUACCCUUACCC (ssRNA) [TERRA C-rich mutant]: in the series with FASTK∆N1-75 [3], the binding result was “binds”.

For the molecule UUAGAGUUAGUGUUAGAGUUAGUG (ssRNA) [TERRA AU-rich mutant], the Kd with FASTK∆N1-75 [4] worked out at 6.4 nM.

For UUAGGGUUAGGGUUAGGGUUAGGG (structured_RNA) [TERRA], the Kd with FASTK∆N1-75 [4] (G4 intramolecular in K+) is 2.4 nM.

B3: ND6 oligo 5 G4kill mutant (ssRNA)
RNA: GAGUGGUCAGAGUUGAUUCGUGAGGAUCCUAUUGGUGCGGAGGCUUUGUAUGAUUAUGUGCGUUGAUUAGUAGUAGUUACUGGUUGAACAUUGUUUGUUGGUGUAUAUAUUGUAAUUGAGAUUGC
Regarding B3, the binding result with FASTK∆N1-75 [5] is on record as “binds”.

B4: ND6 oligo 5 (structured_RNA)
RNA: B3 RNA with U4G, A11G, U21G, A41G, U59G
As to B4, the binding signal in series [6] is 5 fold decrease vs wild type. For the same molecule, in the series with FASTK∆N1-75 [2] (label: Cy5 body (CTP or UTP), 5' 32P in footprinting, predicted G4), the Kd was 25.5 nM.

For UUUUCUGUUUUUUC (ssRNA) [U-rich short RNA], the Kd in the series with FASTK∆N1-75 [2] (label: Cy5) was found to be 63.2 nM.

With GGGUCUGUGGGGUC (ssRNA) [G-rich short RNA (internal loop strand 2)], the Kd with FASTK∆N1-75 [2] (label: Cy5) was found to be 2.7 nM.

Regarding AAAUCUGUAAAAUC (ssRNA) [A-rich short RNA], the equilibrium dissociation constant (Kd) with FASTK∆N1-75 [2] (label: Cy5) stood at 78.4 nM.

Consider CCCUCUGUCCCCUC (ssRNA) [C-rich short RNA], for which the Kd in the series with FASTK∆N1-75 [2] (label: Cy5) was determined as 212 nM.
